In PMC10883267 (2023):

Columns and labels:
Experiment in all cases: pulldown with E. coli lysates, quantified
[1] = molecular target: eIF4E-binding motif of human eIF4EBP1 (50-83) (UniProt Q13541); details: n = 3 independent experiments; parent: est. 0.90; read off a plot
[2] = molecular target: eIF4E-binding motif of human eIF4ENIF1 (27-63) (UniProt Q9NRA8); details: n = 3 independent experiments; parent: est. 2.5; read off a plot
[3] = molecular target: eIF4E-binding motif of human eIF4G (608-647) (UniProt Q04637); details: n = 3 independent experiments; parent: est. 0.30; read off a plot
eIF4E-binding motif of human eIF4G (608-647), sequence (Q04637 608-647): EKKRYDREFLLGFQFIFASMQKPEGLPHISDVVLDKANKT

mouse eIF4E1B (63-244) (from UniProt Q3UTA9) Lateral (V91, T92, I107 mutated; new residues not printed), sequence (Q3UTA9 63-244, change not shown): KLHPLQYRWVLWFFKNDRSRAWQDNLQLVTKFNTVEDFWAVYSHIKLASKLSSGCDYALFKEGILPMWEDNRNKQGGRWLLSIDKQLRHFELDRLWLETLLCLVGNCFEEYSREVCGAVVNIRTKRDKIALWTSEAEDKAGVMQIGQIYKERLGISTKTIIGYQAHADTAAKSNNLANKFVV
mouse eIF4E1B (63-244) (from UniProt Q3UTA9) Dorsal (W101 mutated; new residue not printed), sequence (Q3UTA9 63-244, change not shown): as above
eIF4E-binding motif of human eIF4ENIF1 (27-63), sequence (Q9NRA8 27-63): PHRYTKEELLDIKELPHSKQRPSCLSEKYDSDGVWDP
eIF4E-binding motif of human eIF4EBP1 (50-83), sequence (Q13541 50-83): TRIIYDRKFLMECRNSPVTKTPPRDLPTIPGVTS

Substance | other: Binding (rel. to Mm eIF4E) (rel. to Mm eIF4E) [1] | other: Binding (rel. to Mm eIF4E) (rel. to Mm eIF4E) [2] | other: Binding (rel. to Mm eIF4E) (rel. to Mm eIF4E) [3]
mouse eIF4E1B (63-244) (from UniProt Q3UTA9) Dorsal (W101 mutated; new residue not printed) | 0.1 | 0.15 | 0.2
mouse eIF4E1B (63-244) (from UniProt Q3UTA9) Lateral (V91, T92, I107 mutated; new residues not printed) | 0.2 | 0.9 | 0.12
